# Laboratory results: US20200276130
# B1: recombinant CARM1 used in the in vitro methylation assays (protein)
# chain: MAAAAAAVGPGAGGAGSAVPGGAGPCATVSVFPGARLLTIGDANGEIQRHAEQQALRLEVRAGPDSAGIALYSHEDVCVFKCSVSRETECSRVGKQSFIITLGCNSVLIQFATPNDFCSFYNILKTCRGHTLERSVFSERTEESSAVQYFQFYGYLSQQQNMMQDYVRTGTYQRAILQNHTDFKDKIVLDVGCGSGILSFFAAQAGARKIYAVEASTMAQHAEVLVKSNNLTDRIVVIPGKVEEVSLPEQVDIIISEPMGYMLFNERMLESYLHAKKYLKPSGNMFPTIGDVHLAPFTDEQLYMEQFTKANFWYQPSFHGVDLSALRGAAVDEYFRQPVVDTFDIRILMAKSVKYTVNFLEAKEGDLHRIEIPFKFHMLHSGLVHGLAFWFDVAFIGSIMTVWLSTAPTEPLTHWYQVRCLFQSPLFAKAGDTLSGTCLLIANKRQSYDISIVAQVDQTGSKSSNLLDLKNPFFRYTGTTPSPPPGSHYTSPSENMWNTGSTYNLSSGMAVAGMPTAYDLSSVIASGSSVGHNNLIPLANTGIVNHTHSRMGSIMSTGIVQGSSGAQGSGGGSTSAHYAVNSQFTMGGPAISMASPMSIPTNTMHYGS
# Legend:
# [1] = biological target: GST-PKM2 recombinant protein, P14618
# Chain of GST-PKM2 recombinant protein, P14618 (P14618 whole entry, looked up): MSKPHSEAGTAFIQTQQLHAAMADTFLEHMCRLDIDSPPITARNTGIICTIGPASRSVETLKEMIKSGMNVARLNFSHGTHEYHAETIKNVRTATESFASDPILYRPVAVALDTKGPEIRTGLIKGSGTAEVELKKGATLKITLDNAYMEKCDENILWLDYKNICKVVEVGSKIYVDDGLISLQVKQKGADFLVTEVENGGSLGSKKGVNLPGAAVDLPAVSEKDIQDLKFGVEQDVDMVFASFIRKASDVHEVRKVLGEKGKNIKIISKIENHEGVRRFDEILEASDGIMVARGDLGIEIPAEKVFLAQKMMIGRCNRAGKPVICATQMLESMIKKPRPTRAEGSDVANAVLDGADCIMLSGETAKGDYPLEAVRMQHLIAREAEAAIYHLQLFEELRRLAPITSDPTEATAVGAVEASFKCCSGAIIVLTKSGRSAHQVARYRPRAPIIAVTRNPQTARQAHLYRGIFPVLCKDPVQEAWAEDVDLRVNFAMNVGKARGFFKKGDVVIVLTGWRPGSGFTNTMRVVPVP
# [2] = biological target: GST-PKM1 recombinant protein, P14618
# Chain of GST-PKM1 recombinant protein, P14618 (P14618 other isoform, or with tags, fused parts or gaps): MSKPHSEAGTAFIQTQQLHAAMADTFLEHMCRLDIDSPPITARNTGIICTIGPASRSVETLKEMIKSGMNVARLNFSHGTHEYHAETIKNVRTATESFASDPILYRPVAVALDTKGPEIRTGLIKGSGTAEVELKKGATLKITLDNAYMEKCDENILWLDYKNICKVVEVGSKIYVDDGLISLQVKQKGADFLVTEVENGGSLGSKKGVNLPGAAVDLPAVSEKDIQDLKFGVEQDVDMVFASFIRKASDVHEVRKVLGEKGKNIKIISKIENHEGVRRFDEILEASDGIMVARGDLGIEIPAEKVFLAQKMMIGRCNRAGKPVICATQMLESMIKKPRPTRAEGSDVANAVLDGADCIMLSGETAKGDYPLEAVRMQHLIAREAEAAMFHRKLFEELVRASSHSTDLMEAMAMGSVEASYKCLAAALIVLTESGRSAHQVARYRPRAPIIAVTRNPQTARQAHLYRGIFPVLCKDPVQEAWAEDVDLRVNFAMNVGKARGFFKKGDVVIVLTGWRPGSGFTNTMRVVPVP
protein,measurement,setting,value
B1,"in vitro methylation assay (3H-SAM, autoradiography)",[1],"only PKM2, but not PKM1, can be methylated by CARM1 in in vitro methylation assays"
same,"in vitro methylation assay (3H-SAM, autoradiography)",[2],"only PKM2, but not PKM1, can be methylated by CARM1 in in vitro methylation assays"
